Test results published in the nanobody polyreactivity screen of Harvey et al. (2022).

Test: yeast display, Sf9 membrane polyspecificity reagent, FACS + sequencing; frameworks hold sequencing errors
Outline: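 Genes from sorted yeast were amplified by colony PCR, read by MiSeq 2 × 250 sequencing and filtered on CDR length. These cells carried a synthetic nanobody library in Saccharomyces cerevisiae BJ5465 and were sorted by FACS into low and high (top ~1%) gates on anti-HA and streptavidin fluorescence. Polyreactivity is labelled according to the gate of origin.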
With “QVQLVESGGCLVQAGCSLRLSCAASGSTFYSYAMGWYRQAPGKERELVAAINWDGVSTYYADSVKGRFTISRDNAKNTVYLQMNSMKPEDTAVYFCAAELFYGYRISGTYYYWGQGTQVTVSS” the “polyreactivity (PSR sort gate)” value was “low polyreactivity”. For “QVQLVESGGCLVQAGGSIRLSFAASGSISIRNAMGWYRQAPGTERELVAAISRGGSTYYADSVKGRFTISRDNAKNTVYLQMNSLNPEDTAVYYFATDGGLYYRGREYAFKYFYWGQGTQLTVSS”, the “polyreactivity (PSR sort gate)” value was “high polyreactivity”. For “QVQLVESGGCLVQAGGSLRLCCAASGSTFDSNAMGSYRQAPGIERELVAAISSDGSTTYADSVKGRFTISRDNAMNTVYLQMNSLKPEDTAVYYCEYYYWGQGTQVSVSS”, the “polyreactivity (PSR sort gate)” value was “low polyreactivity”. In the case of “QVQLVESGGCLVQAGGSLRLICAASGRIIDRNAMGWYRHAPGKERELVAAISSSGSTYYADSVKGRFTISRDNAKITVYLQMNSLKPEDTAVYYCNKRARHSGDFVWGHGYWGQGTQVNVSS”, the “polyreactivity (PSR sort gate)” value is reported as “low polyreactivity”. For “QVQLVESGGCLVQAGGSLRLICAASGRIVKYAMGWYRQAPGKERELVAAISGSGGTTYYADSVKGRFTISRDNAKNTVYLQMNSLKPEDTAVYYCAASRPRPPSSRRMDYWGQGTQVTVSS”, the “polyreactivity (PSR sort gate)” value was “high polyreactivity”. With “QVQLVESGGCLVQAGGSLRLSCAASGFIFAYNAMGWYRQAPGKERELDAAISWSGGSTYYADSVKGRFTISRDNAKNTVYLQMNSLKPEDTAVYYCNKYIRYPFKRYGYWGQGTQVTVSS” the “polyreactivity (PSR sort gate)” value was “high polyreactivity”. In the case of “QVQLVESGGCLVQAGGSLRLSCAASGFIFNKYAMGWSRQATGKERELVAAISFRGGRTYYADSVKGRFTISRDNAKNTVYFQMNSLKPEDTAVYYCAAETRDYSEGYYWGQGTQVTVSS”, the “polyreactivity (PSR sort gate)” value is reported as “high polyreactivity”. For “QVQLVESGGCLVQAGGSLRLSCAASGFIFSTNAMAWYRQARGTERELVAAITGRGTNTYYADSVKGRFTISRDNAKNTVYLQMNSLKPEDTAVYYCAADGGSYSDYDYWGLGTQVTVSS”, the “polyreactivity (PSR sort gate)” value was “high polyreactivity”. In the case of “QVQLVESGGCLVQAGGSLRLSCAASGFTFRRYTMGWSRQAPGKDRELVAAISGRGGRTYYADSVKGRFTISRDNAKNTVYLQMNSLQPQDTAVYYSAADTPYWQSSKYDYWGQGTQVTVSS”, the “polyreactivity (PSR sort gate)” value is reported as “high polyreactivity”. In the case of “QVQLVESGGCLVQAGGSLRLSCAASGFTFSNYAMGWYRQPPGKESEFVAAISGTGGSTYYADSVKGRFTISRVNAKNTVYLQMNSLKPEDTAVYYCARRRTYPPGRYYYWGQGTQVTVSS”, the “polyreactivity (PSR sort gate)” value is reported as “high polyreactivity”. With “QVQLVESGGCLVQAGGSLRLSCAASGFTFVGYAMGWYRQAPGKERELVAAITSSGGSTYYADSVKGRFTISRDNAKNTVYLQMNSLKPEDTAVYYCAAPAPVLSTQKRFDSWGQGTQVTVSS” the “polyreactivity (PSR sort gate)” value was “low polyreactivity”. With “QVQLVESGGCLVQAGGSLRLSCAASGFTFYGYAMAWYRQAPGKERELVAYISWSGGTTYYADSVKGRFTISRDNAKNTVYLQMNSLKPEDTAVYYCNAVRYRYGVFPYYYWGQGTQVTVSS” the “polyreactivity (PSR sort gate)” value was “high polyreactivity”. In the case of “QVQLVESGGCLVQAGGSLRLSCAASGGTFGPNAKGSYRQAPGKERELVAAISWTTGRTYADSVKGRFTISRDNAKNTVYLQMNSLKPEDTAVYYCATRAYRLDPLQHDYWGQGTQVTVSS”, the “polyreactivity (PSR sort gate)” value is reported as “low polyreactivity”. In the case of “QVQLVESGGCLVQAGGSLRLSCAASGIIFSGYAMGWYRQAPGKERELVAAISSRGGGPYYADSVKGRFTISRDNAKKTVYLQMNSLKPEDTAVYYCNRVAFTYNYWGQGTQVTVTS”, the “polyreactivity (PSR sort gate)” value is reported as “high polyreactivity”. For “QVQLVESGGCLVQAGGSLRLSCAASGIIFTYYAMGWYRQAPGKERELVARISSSGGRTYYADSVKGRFTISRDNAKNTVYLQMNSLKPEDTAVYYCAARVFSRPPQPGSPRGYRGFDYWGQGTQVTVSS”, the “polyreactivity (PSR sort gate)” value was “high polyreactivity”. With “QVQLVESGGCLVQAGGSLRLSCAASGITFESNAMGWYRQAPGIEREFVAAISYDGGDTYYADSVKGRFTISRDNAKNTVYLEMTSLKTEDTAVFYCAAEPGWTMDYWGQGTQVTVSS” the “polyreactivity (PSR sort gate)” value was “low polyreactivity”. For “QVQLVESGGCLVQAGGSLRLSCAASGITFYVYAMGWYRQAPGKESELVASITSGGGSTDYADSVKGRVTISRDNAKNTVYLQMNSLKPEDTAVYYCAARYPLLNQLYDFDYWGQGTQVTVSS”, the “polyreactivity (PSR sort gate)” value was “low polyreactivity”. For “QVQLVESGGCLVQAGGSLRLSCAASGITITANAMGWYRQAPRKERELVAAITWSGGSTYYADSVKGRFTISRDNAKNTVYLQMNSLKPEETAVYYCNAEGIGDREYDYWGQGTQVTVSS”, the “polyreactivity (PSR sort gate)” value was “low polyreactivity”. In the case of “QVQLVESGGCLVQAGGSLRLSCAASGLIFGDYAMGWYRPAPGKESELVAAITGSFTRTYYADSVKGSFTISRDNAKNTVYLQMNSLKPEDTAVYYCAADWYKRPPYVYWGQGTQVTLSS”, the “polyreactivity (PSR sort gate)” value is reported as “low polyreactivity”. For “QVQLVESGGCLVQAGGSLRLSCAASGLIFGRNVMGWYRQAPGKERELVAAISWSGGRTYYADSVKGRFSISRDNAKNTVYLQMNSLKPEDTAVYYCNARYSRVWYGCDYWGQGTQVTVSS”, the “polyreactivity (PSR sort gate)” value was “high polyreactivity”. With “QVQLVESGGCLVQAGGSLRLSCAASGLTFIVYAMGWYRQAPGKERELVADITWSGGSTYYADSVKGRYTISRDNAKITVYLQMNSLKPVDTAVYYCNRQSAKIMDYWGQGTQVNVSS” the “polyreactivity (PSR sort gate)” value was “low polyreactivity”. In the case of “QVQLVESGGCLVQAGGSLRLSCAASGNTFPYYDMGWYRQAPGKERELVAVIRTGDDTNYADSVKGRFTISRDNAKNTVYLQMNSLKPEDTAVYYCAVVGPKGADGLPPYNRMDYWGHGTQVTVSS”, the “polyreactivity (PSR sort gate)” value is reported as “low polyreactivity”. In the case of “QVQLVESGGCLVQAGGSLRLSCAASGNTFVDYAMGWYRQAPGKERELGAAIDQTGGSTYYADSVKGRFTISRDNAKNTVYLQMNSLKPVDTAVYYCASDLSDRKDLYPRWYDYWGQGSQVTVSS”, the “polyreactivity (PSR sort gate)” value is reported as “low polyreactivity”. For “QVQLVESGGCLVQAGGSLRLSCAASGNTLRTYGMGWYRQAPGKESEFVAAITYSGGSTYYADSVKGRFTISRDNAKNTVYLQMNSLKPEDTAVYYCAARYRSHYRRITPYDSWGQGTQVTVSS”, the “polyreactivity (PSR sort gate)” value was “high polyreactivity”. For “QVQLVESGGCLVQAGGSLRLSCAASGRIFHQNTMGWYRQAPGKERELVAAISATGGGTNYADSVKGRFTISRDNAKNTVYLQMNSLKPEDTAVYYCAVRPKTSWYSWYYWGQGTQVTVSS”, the “polyreactivity (PSR sort gate)” value was “low polyreactivity”. In the case of “QVQLVESGGCLVQAGGSLRLSCAASGRIFQYYTMGWYRQAPAKERELVAAITYSGGDTRYADSVKGRFTISRDNAKNTVYLQMNSLKPEDTAVYYCAADYFDQYQYGVWTYGYWGQGTQVTVSS”, the “polyreactivity (PSR sort gate)” value is reported as “low polyreactivity”. In the case of “QVQLVESGGCLVQAGGSLRLSCAASGRIFYGNTMGCYRQAPGKESELVATITRSGGSTYYADSVKGRFTISRDNAKNTVYLQMNNLKPEDTAVYYCAVGYWRLFPYGYWGQGTQVTVSS”, the “polyreactivity (PSR sort gate)” value is reported as “high polyreactivity”. For “QVQLVESGGCLVQAGGSLRLSCAASGRIVYPYAMGWYRQAPGKERELVAAISSSGGSTYYADSVKGRFTISRDNAKNTVYLQMNSLKPDDTAVYYCAAQEFQKRLGGSWCRYDYWGQGTQVNVSS”, the “polyreactivity (PSR sort gate)” value was “high polyreactivity”. For “QVQLVESGGCLVQAGGSLRLSCAASGRTFAWYAMGWYRQAPGKERELVAAISSGGSTYYADSVKGRFTISRDNAKNTVYLQMDSLKPEDTAVYYCAAEWHYIYAYDYWGQGTQVTVSS”, the “polyreactivity (PSR sort gate)” value was “low polyreactivity”. With “QVQLVESGGCLVQAGGSLRLSCAASGRTFAWYAMGWYRQAPGKERELVAAITNGGSTYYADSVKGRFTISRDNAKNTVYLQMNSLKPDDTAVYYCAAYYRSRHHGYDSWGQGTQVTVSS” the “polyreactivity (PSR sort gate)” value was “low polyreactivity”. With “QVQLVESGGCLVQAGGSLRLSCAASGRTFAYYAMGWYRQAPGKERELVAAITRGGSTYYADSVKGRFTISRDNAKNTVYLQMNSLKPEDTAVYYCAADTSPYQDDYWGQGTQVTVSS” the “polyreactivity (PSR sort gate)” value was “low polyreactivity”. With “QVQLVESGGCLVQAGGSLRLSCAASGRTFDINDMGWYRQAPGKEREFVAAIDRSGGNTYYADSVKGRFIISRDNAKNTVYLQMNSLKPEDTAVYYCAADSPYVVAWPYVWYFTFDYWGQGTQVTVTS” the “polyreactivity (PSR sort gate)” value was “low polyreactivity”. In the case of “QVQLVESGGCLVQAGGSLRLSCAASGRTFNRYAMGWYRQAPGKERELVAAITRRGGSTYYADSVKGRFTISRDNAKNTVYLQMNSLKPEDTAVYYCATDTYYSDYGSWGQGTQVTVSS”, the “polyreactivity (PSR sort gate)” value is reported as “high polyreactivity”. For “QVQLVESGGCLVQAGGSLRLSCAASGRTFPLYAMGWYRQAPGKERELVASITNGGNTNYADSVKGRFTISRDNEKNTVYLQMNSLKPEDTAVYYCAAQTFGYGFGGGDYWGQGTQVTVSS”, the “polyreactivity (PSR sort gate)” value was “low polyreactivity”. With “QVQLVESGGCLVQAGGSLRLSCAASGRTFRHYGMGWYRPAPRKERELVAAISRSGGRTYYADSVKGRFTISRDNAKNTVYLQMNSLKPEDTAVYYCNAPYDVTTYAFDYWGQGTQVTVSS” the “polyreactivity (PSR sort gate)” value was “high polyreactivity”. In the case of “QVQLVESGGCLVQAGGSLRLSCAASGRTFYFYAMGWYRQAPGKERELVASISWSGGRTNYADSVKGRFTSSRDNAKNTVYLQMNSLKPEDTAVHYCAARYVERHTDYYYWGQGTQVTVSS”, the “polyreactivity (PSR sort gate)” value is reported as “low polyreactivity”. With “QVQLVESGGCLVQAGGSLRLSCAASGRTSVIYAMGWYRQAPGKERELVASIRRGGSTSYADSVKGRFTISRDNAKNTVYLQMNSLKPEDTAVYYCAADRYTWRKSYDYWGQGTQVTVSS” the “polyreactivity (PSR sort gate)” value was “high polyreactivity”. For “QVQLVESGGCLVQAGGSLRLSCAASGSIFAYYAMGWYRQAPGKERELVAAITSGDSTYYADSVKGRFTISRDNAKNTVYLQMNSLKPEDTAVYYCAADHIWFYFYLYDYWGQGTQVTVSS”, the “polyreactivity (PSR sort gate)” value was “low polyreactivity”. With “QVQLVESGGCLVQAGGSLRLSCAASGSIFGANTMGWYRQAPGKESELVAAISSGGNTYYADSVKGRFTISRDNAKNTVYLQMNSLKPEDTAVYYCNAQTRYRYQYGFLGGTGYNYWGQGTQVTVSS” the “polyreactivity (PSR sort gate)” value was “low polyreactivity”. With “QVQLVESGGCLVQAGGSLRLSCAASGSIFRYNIGWYRQAPGKERELVAAISSSGVRTYYADSVKGRFTISRDNAKNTVYLQMNSLKPEDTAVYYCAAASGGRWRVGYWGQGTQVTVSS” the “polyreactivity (PSR sort gate)” value was “high polyreactivity”. With “QVQLVESGGCLVQAGGSLRLSCAASGSIFRYYVMGWYRQAPGKERELVAAISSRGGSTYYADSVKGRFTISRDNAKNTVYLQMNSLKPEDTAVYYCAAYRAYSTAVGMEYWGQGTQVTVSS” the “polyreactivity (PSR sort gate)” value was “high polyreactivity”.
